In patent publication US20080311575A1, “Modulation of Muci-Dependent Anti-Estrogen Resistance” (priority 2005, published 2008):
Residues, ends and D or L forms follow the SMILES beside them. *: point of attachment. Cbz = O=C(OCc1ccccc1)*

Tests used:
[1] = test system: ERα-mediated transcription (ERE-tk-Luc); assay: ERE-tk-Luc reporter assay in MCF-7/CsiRNA and MCF-7/MUC1siRNA-A cells; type: cell-based, human; details: MCF-7/CsiRNA versus MCF-7/MUC1siRNA-A cells, 100 nM E2 for 24 h
ERα = assay: Immunoblot of ERα levels in MCF-7 and ZR-75-1 cells; type: cell-based, human; details: MG132 5 mM for 24 h
Protocol: FIGS. 5A-D. MUC1 stabilizes ERα. FIG. 5A. Lysates from the indicated MCF-7 (left) and ZR-75-1 (right) cells were immunoblotted with anti-ERa, anti-MUC1-C and anti-β-actin. WT: wild-type cells. FIGS. 5B and C. The indicated MCF-7 (left) and ZR-75-1 (right) cells were treated with 5 mM MG132 for 24 h. Lysates were subjected to immunoblotting with the indicated antibodies FIG. 5B. […] Lysates were immunoprecipitated with anti-ERα and the precipitates were analyzed by SDS-PAGE and autoradiography. A higher amount of MCF-7/MUC1siRNA cell lysate was used for immunoprecipitation to increase the ERα signals. Lysates not subjected to immunoprecipitation were immunoblotted with anti-β-actin. Intensity of the signals as determined by densitometric scanning is presented as the percentage of ERα remaining over time relative to control at 0 h.
Coimmunoprecipitation and immunoblotting.

breast cancer = details: patients with high ER and PgR expression levels; cited from earlier work
breast cancer cells = assay: Induction of apoptosis in breast cancer cells; type: cell-based, human; details: both cell types (MCF-7, ZR-75-1); data not shown
[2] = biological target: T1, 35S-labeled full-length ERα(1-595) (Homo sapiens (Human), UniProt P03372 1-595, 35S-labeled in in vitro transcription/translation (TNT) reactions); assay: GST pull-down on glutathione beads, 35S-labeled full-length ERα, phosphoimaging
T1 construct: In vitro translated from pcDNA3.1-ERα; also called 35S-labeled ERα
T1 sequence: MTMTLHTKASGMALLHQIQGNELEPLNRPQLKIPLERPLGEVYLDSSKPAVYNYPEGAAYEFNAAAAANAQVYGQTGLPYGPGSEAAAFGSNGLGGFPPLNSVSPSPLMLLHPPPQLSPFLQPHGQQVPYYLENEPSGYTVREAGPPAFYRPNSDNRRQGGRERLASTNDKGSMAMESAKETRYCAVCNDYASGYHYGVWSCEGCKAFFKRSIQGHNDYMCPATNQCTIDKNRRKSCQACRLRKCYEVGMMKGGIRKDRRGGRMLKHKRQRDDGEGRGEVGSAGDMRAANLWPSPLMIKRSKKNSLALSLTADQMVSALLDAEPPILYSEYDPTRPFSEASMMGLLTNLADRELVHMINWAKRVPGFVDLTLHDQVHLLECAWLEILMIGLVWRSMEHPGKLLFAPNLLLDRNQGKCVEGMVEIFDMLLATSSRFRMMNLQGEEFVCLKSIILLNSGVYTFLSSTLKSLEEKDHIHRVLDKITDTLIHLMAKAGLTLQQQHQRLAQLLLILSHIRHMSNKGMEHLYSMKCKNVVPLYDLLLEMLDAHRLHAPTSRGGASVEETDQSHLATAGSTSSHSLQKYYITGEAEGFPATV
Protocol: To localize the region within MUC1-CD that interacts with ERα, ³⁵S-labeled full length ERα was incubated with deletion mutants of MUC1-CD.

[3] = biological target: T2, estrogen receptor α (ERα), expressed in cells (human, UniProt P03372 1-595); assay: cell-based or functional assay
T2 sequence: T1 sequence

[4] = biological target: T3, proliferating cell nuclear antigen (PCNA) (human, UniProt P12004 1-261); assay: coimmunoprecipitation: anti-PCNA precipitates of cell lysates, immunoblot with anti-MUC1-C
T3 construct: Precipitated from lysates with anti-PCNA as a control
T3 sequence (P12004 whole entry): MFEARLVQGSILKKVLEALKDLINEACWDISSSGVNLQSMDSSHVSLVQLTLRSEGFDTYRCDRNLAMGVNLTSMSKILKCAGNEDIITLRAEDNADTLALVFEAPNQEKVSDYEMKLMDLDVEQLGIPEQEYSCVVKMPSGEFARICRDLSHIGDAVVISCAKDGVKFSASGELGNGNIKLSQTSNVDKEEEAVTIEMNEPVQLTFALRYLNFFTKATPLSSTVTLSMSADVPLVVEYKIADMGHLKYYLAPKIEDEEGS

35S-labeled ERα(282-595) = biological target: T4, 35S-labeled ERα(282-595) (Homo sapiens (Human), UniProt P03372 282-595, 35S-labeled in in vitro transcription/translation (TNT) reactions); assay: GST pull-down on glutathione beads, 35S-labeled ERα deletion mutant, phosphoimaging
T4 sequence: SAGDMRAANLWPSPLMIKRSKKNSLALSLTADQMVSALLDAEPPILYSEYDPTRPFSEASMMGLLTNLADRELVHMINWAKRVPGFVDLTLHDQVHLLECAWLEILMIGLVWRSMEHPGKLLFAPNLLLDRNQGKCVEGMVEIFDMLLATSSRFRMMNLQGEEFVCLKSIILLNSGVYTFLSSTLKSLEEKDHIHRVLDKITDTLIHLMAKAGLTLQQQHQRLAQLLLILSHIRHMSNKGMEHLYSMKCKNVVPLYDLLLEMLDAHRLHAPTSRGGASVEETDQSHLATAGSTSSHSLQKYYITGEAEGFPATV

35S-labeled ERα(1-185) = biological target: T5, 35S-labeled ERα(1-185) (Homo sapiens (Human), UniProt P03372 1-185, 35S-labeled in in vitro transcription/translation (TNT) reactions); assay: as above
T5 construct: Deletion mutant that contains the AF1 domain
T5 sequence: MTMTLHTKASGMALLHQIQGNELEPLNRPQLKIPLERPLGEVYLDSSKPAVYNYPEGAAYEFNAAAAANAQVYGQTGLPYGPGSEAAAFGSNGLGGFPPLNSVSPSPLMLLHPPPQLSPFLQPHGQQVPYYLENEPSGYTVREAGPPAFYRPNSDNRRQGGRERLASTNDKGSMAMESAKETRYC

[5] = biological target: T6, 35S-labeled ERα(Δ186-281) (Homo sapiens (Human), UniProt P03372 1-595, 35S-labeled in in vitro transcription/translation (TNT) reactions); assay: as above
T6 construct: Internal deletion of residues 186-281, devoid of the DBD
T6 sequence: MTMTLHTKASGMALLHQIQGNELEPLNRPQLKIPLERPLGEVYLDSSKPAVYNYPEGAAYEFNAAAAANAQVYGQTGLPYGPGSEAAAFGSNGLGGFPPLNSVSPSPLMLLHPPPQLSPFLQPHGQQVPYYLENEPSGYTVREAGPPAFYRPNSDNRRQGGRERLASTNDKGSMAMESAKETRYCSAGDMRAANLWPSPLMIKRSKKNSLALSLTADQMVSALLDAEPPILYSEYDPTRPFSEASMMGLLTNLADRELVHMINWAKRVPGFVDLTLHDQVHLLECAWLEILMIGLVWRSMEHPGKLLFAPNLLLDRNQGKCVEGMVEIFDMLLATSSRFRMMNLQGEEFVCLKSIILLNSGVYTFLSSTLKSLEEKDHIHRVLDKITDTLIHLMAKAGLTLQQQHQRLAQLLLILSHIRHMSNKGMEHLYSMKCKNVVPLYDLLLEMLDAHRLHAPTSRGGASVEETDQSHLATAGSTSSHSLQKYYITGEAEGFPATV

In the case of `C[C@]12CC[C@@H]3c4ccc(O)cc4CC[C@H]3[C@@H]1CC[C@@H]2O` [E2, 17β-estradiol], the “MUC1-dependent activation of ERE-tk-Luc” value [1] is reported as ~5 fold.

With `C[C@]12CC[C@@H]3c4ccc(O)cc4C[C@@H](CCCCCCCCC[S+]([O-])CCCC(F)(F)C(F)(F)F)[C@H]3[C@@H]1CC[C@@H]2O` (some centres unmarked) [ICI, ICI 182,780] the “effect on ERα expression (immunoblot)” value (ERα) was “down-regulation of ERα”.

With `CC(C)C[C@@H](C=O)NC(=O)[C@H](CC(C)C)NC(=O)[C@H](CC(C)C)NC(=O)OCc1ccccc1` [MG132] (Cbz-Leu-Leu-Leu-aldehyde) the “effect on ERα expression (immunoblot)” value (ERα) was “increases in ERα expression”.

For `CC/C(=C(\c1ccccc1)c1ccc(OCCN(C)C)cc1)c1ccccc1` [TAM, tamoxifen], the overall response rate (breast cancer) is listed as ≤ 70% and the induction of apoptosis (breast cancer cells) is listed as ≤ 10%.

B1: GST-MUC1-CD with deletion of amino acids 9 to 46 (other, not shown: a dimerising Fc or GST; large carriers; small tags and cut ends)
chain: CQCRRKNYEKVSAGNGGSSLSYTNPAVAATSANL
notes: also called MUC1-CD deletion mutant (amino acids 9 to 46 deleted)
B1: no binding [2].

B2: MUC1 C-terminal subunit (MUC1-C) (other)
chain: SVVVQLTLAFREGTINVHDVETQFNQYKTEAASRYNLTISDVSVSDVPFPFSAQSGAGVPGWGIALLVLVCVLVALAIVYLIALAVCQCRRKNYGQLDIFPARDTYHPMSEYPTYHTHGRYVPPSSTDRSPYEKVSAGNGGSSLSYTNPAVAATSANL
notes: Endogenous ~20-25 kDa MUC1-C in lysates of human breast cancer cells
For B2, the “MUC1-dependent activation of ERE-tk-Luc (luciferase reporter, MCF-7/CsiRNA against MCF-7/MUC1siRNA-A cells stimulated with E2)” value [3] was ~5 fold and the binding result [4] was “no binding”.

B3: GST-MUC1-CD(1-72) (other, not shown: a dimerising Fc or GST)
chain: CQCRRKNYGQLDIFPARDTYHPMSEYPTYHTHGRYVPPSSTDRSPYEKVSAGNGGSSLSYTNPAVAATSANL
notes: also called full-length MUC1-CD
B3: no binding (35S-labeled ERα(282-595)); no binding (35S-labeled ERα(1-185)); no binding [5].
